Laboratory results: paper PMC12130729, “CD98hc, a novel of galectin-8 receptor, binds to galectin-8 in an N-glycosylation-dependent manner” (Acta Biochimica et Biophysica Sinica, 2025)

T1: Extracellular domain of CD98hc (CD98hc-ED), His-tagged (human, UniProt P08195 105-529, N-glycosylated (glycosylated CD98hc-ED))
T1 construct: CD98hc, human (cDNA from HeLa cells), extracellular domain; the printed primers encode an added start Met followed by RAPRCR, and end with RFPYAA (the C-terminus) followed by six His codons and a stop; His6 and its C-terminal position are read from the reverse primer; the text says only 'with a His-tag'; No signal peptide is encoded by the primers. 'Free CD98hc-ED' is this protein after PNGase F …
T1 sequence (looked up): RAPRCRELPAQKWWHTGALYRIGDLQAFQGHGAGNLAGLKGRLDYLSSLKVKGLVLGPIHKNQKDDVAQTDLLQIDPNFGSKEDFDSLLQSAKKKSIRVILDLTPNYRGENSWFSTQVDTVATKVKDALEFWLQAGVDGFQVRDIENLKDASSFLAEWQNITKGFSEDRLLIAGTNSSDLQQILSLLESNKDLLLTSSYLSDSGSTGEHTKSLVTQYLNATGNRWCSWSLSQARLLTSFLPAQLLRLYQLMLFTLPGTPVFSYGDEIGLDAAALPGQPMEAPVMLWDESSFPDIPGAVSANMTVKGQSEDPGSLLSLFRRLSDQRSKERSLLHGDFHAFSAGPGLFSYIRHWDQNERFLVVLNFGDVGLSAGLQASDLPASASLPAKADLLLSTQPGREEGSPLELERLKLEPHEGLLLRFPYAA


Tests used:
[1] = biological target: Extracellular domain of CD98hc (CD98hc-ED), His-tagged (human) (UniProt P08195); assay: MST; His-tagged CD98hc-ED (50 nM) labelled with RED-tris-NTA 2nd generation as target; Gal-8, Gal-8N or Gal-8C titrated 50 μM to 12.21 nM (1:1 dilution series); Monolith NT.115, room temperature, LED 60%, MST power medium; KD fit; three independent experiments
[2] = biological target: T1, Extracellular domain of CD98hc …; assay: as above; conditions: both partners purified

Molecule | Kd [1] | Kd [2]
Recombinant Gal-8 (His-Gal-8) (from UniProt O00214 1-317) (natural protein) | 1510 nM | –
Recombinant Gal-8N (His-Gal-8N) (domain or fragment, human, UniProt O00214 1-152, looked up, Galectin-8, human, N-terminal carbohydrate recognition domain (Gal-8N); also called N-terminal carbohydrate recognition domain of Gal-8; source: E. coli BL21 (DE3) pLysS, as previously described by Si et al. [9]) MMLSLNNLQNIIYNPVIPFVGTIPDQLDPGTLIVIRGHVPSDADRFQVDLQNGSSMKPRADVAFHFNPRFKRAGCIVCNTLINEKWGREEITYDTPFKREKSFEIVIMVLKDKFQVAVNGKHTLLYGHRIGPEKIDTLGIYGKVNIHSIGFS | – | 220 ± 30 nM
Recombinant Gal-8C (His-Gal-8C) (domain or fragment, human, UniProt O00214 187-317, looked up, Galectin-8, human, C-terminal carbohydrate recognition domain (Gal-8C); also called C-terminal carbohydrate recognition domain of Gal-8; source: E. coli BL21 (DE3) pLysS, as previously described by Si et al. [9]) FAARLNTPMGPGRTVVVKGEVNANAKSFNVDLLAGKSKDIALHLNPRLNIKAFVRNSFLQESWGEEERNITSFPFSPGMYFEMIIYCDVREFKVAVNGVHSLEYKHRFKELSSIDTLEINGDIHLLEVRSW | – | 10700 ± 1690 nM
